Experimental data published in publication doi:10.1101/2024.12.23.630145, “Setdb1 and Atf7IP form a hetero-trimeric complex that blocks Setdb1 nuclear export” (bioRxiv, 2024).
Where a chain is given by its changes, count along the chain named. Numbers in names are those of the source.

B1: 6Xhis-SUMO-Setdb1(Δα1- α2; residues 50–114) (domain or fragment, human, UniProt Q15047 50-114, looked up)
chain: KMDCVQQRKKQLAELETWVIQKESEVAHVDQLFDDASRAVTNCESLVKDFYSKLGLQYRDSSSED
notes: Setdb1, human, UniProt Q15047, residues 50–114 (helices α1 and α2 removed); source: E. coli (BL21DE3 or Rosetta2), purified (HisTrap, dialysis); not shown: His6, N-terminal, kept; SUMO, N-terminal, kept
B2: 6Xhis-SUMO-Setdb1(Δα1; residues 35–114) (domain or fragment, human, UniProt Q15047 35-114, looked up)
chain: ISMEELRHFIDEELEKMDCVQQRKKQLAELETWVIQKESEVAHVDQLFDDASRAVTNCESLVKDFYSKLGLQYRDSSSED
notes: Setdb1, human, UniProt Q15047, residues 35–114 (helix α1 with NES#1 removed); source: E. coli (BL21DE3 or Rosetta2), purified (HisTrap, dialysis); not shown: His6, N-terminal, kept; SUMO, N-terminal, kept
B3: biotin-MBP-Atf7IP(574–666) (domain or fragment, human, UniProt Q6VMQ6 574-666, looked up)
chain: EEEYEAEFQVKITAKGDINQKLQKVIQWLLEEKLCALQCAVFDKTLAELKTRVEKIECNKRHKTVLTELQAKIARLTKRFEAAKEDLKKRHEH
modifications: biotin (on the Avi-tag)
notes: also called AviTag-MBP-Atf7IP; source: E. coli, co-expressed with birA with 40μM biotin, purified (MBPTrap, Superdex 200); not shown: AviTag, N-terminal, kept; MBP, N-terminal, kept
B4: 6Xhis-SUMO-Atf7IP(574–666) (domain or fragment, human, UniProt Q6VMQ6 574-666, looked up)
chain: B3 chain
notes: Printed mass 23.2 kDa; not shown: His6, N-terminal, kept; SUMO, N-terminal, kept
B5: MBP-Atf7IP (574–666) C608S C612S (domain or fragment, human, UniProt Q6VMQ6 574-666, looked up)
chain: B3 chain with C35S, C39S
notes: also called Atf7IP(C631); not shown: MBP, N-terminal, kept

Columns and labels:
[1] = biological target: B3; test: AlphaScreen or HTRF; His-sumo-Setdb1 on nickel chelate acceptor beads, biotin-MBP-Atf7IP(574–666) on streptavidin donor beads; 20nM each, or one at 20nM and the other 0–20nM; 50mM MOPS, 50mM CHAPS, 50mM NaF, 100μg/ml BSA, pH7; room temperature; details: both partners purified
[2] = biological target: the molecule itself; test: SEC; isolated MBP-Atf7IP(574–666), gel filtration with and without Tween 20
GST-Setdb1(2–115) = biological target: T1, GST-Setdb1(2–115) (human, UniProt Q15047 2-115); test: pull-down; 0.5 μM GST fusion on glutathione Sepharose beads; 1.5 μM hCRM1 with or without 4.5 μM Ran^GTP; MBP-Atf7IP(574–666) pre-incubated at 3-fold or 15-fold excess; TB buffer (20mM HEPES 7.4, 110mM potassium acetate, 2mM magnesium acetate, 10% glycerol, 2mM DTT, 0.005% Tween20); Coomassie SDS-PAGE; details: both partners purified
T1 construct: also called GST-Setdb1(2–114); source: E. coli, purified (GSTTrap, Superdex 200); not shown: GST, N-terminal, kept

His-sumo-Setdb1(2–115) = biological target: T2, His-sumo-Setdb1(2–115) (human, UniProt Q15047 2-115); test: AlphaScreen or HTRF; His-sumo-Setdb1 on nickel chelate acceptor beads, biotin-MBP-Atf7IP(574–666) on streptavidin donor beads; 20nM each, or one at 20nM and the other 0–20nM; 50mM MOPS, 50mM CHAPS, 50mM NaF, 100μg/ml BSA, pH7; room temperature; details: both partners purified
T2 construct: source: E. coli (BL21DE3 or Rosetta2), purified (HisTrap, dialysis); not shown: His6, N-terminal, kept; SUMO, N-terminal, kept

[3] = biological target: the molecule itself; test: native MS; co-expressed complex purified, exchanged into 400 mM ammonium acetate pH 7.9, 1 mM DTT; 500 nM; HCD 220 V for fragments
MBP-Setdb1(2–115) = biological target: T3, MBP-Setdb1(2–115) (human, UniProt Q15047 2-115); test: SEC-MALS; co-expressed complex purified by MBP affinity; Superdex 200 Increase 10/300 GL; about 400 μL at ~1 mg/mL; details: both partners purified
T3 construct: Printed mass 56.7 kDa; also called MBP-Setdb1(2–114); source: E. coli, co-expressed with its partners; complex purified (MBPTrap, Superdex 200); not shown: MBP, N-terminal, kept

[4] = biological target: the molecule itself; test: cross-linking; MBP-Atf7IP(574–666) C608S C612S in isolation, purified on amylose beads, non-reducing; SDS-PAGE with and without BME

B1 was tested, and the “binding as percent of WT” value [1] was ~30 % of WT.

With B2 the “binding as percent of WT” value [1] was ~80 % of WT.

B3: binds [2]; binds (GST-Setdb1(2–115)); binds (His-sumo-Setdb1(2–115)).

B4 was tested, and the binding result [3] was “binds” and the “stoichiometry N” value (MBP-Setdb1(2–115)) was 2 Atf7IP per Setdb1.

B5: binds [4].
